First the molecules themselves.
B1: NR2F2 (parent)
chain: VAHVESLQEKSQCALEEYVRSQYP
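Also: lentivirally expressed fusions sorted by FACS into six bins by GFP to DsRed ratio, PSI derived from sequencing read proportions per bin multiplied by bin number.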

In this data set the parent is B1. Description: protein stability index of a GFP-peptide fusion (GPS, HEK-293T) (PSI 1-6); higher = more stable. Particulars: c terminus: a fixed tail appended.
For the variant VAEVESLQEKSQCALEEYVRSQYP, the protein stability index was found to be 4.95.
For the variant VACVESLQEKSQCALEEYVRSQYP, the protein stability index is 3.42.
The result for VADVESLQEKSQCALEEYVRSQYP reads 4.6.
The same measure for VAWVESLQEKSQCALEEYVRSQYP: 2.26; for VANVESLQEKSQCALEEYVRSQYP: 3.77.
The same measure for VARVESLQEKSQCALEEYVRSQYP: 3.45; for VAGVESLQEKSQCALEEYVRSQYP: 3.75.
In the case of VAHVESIQEKSQCALEEYVRSQYP, the protein stability index stood at 3.82.
The same measure for VAHVESRQEKSQCALEEYVRSQYP: 3.89; for VAHVESWQEKSQCALEEYVRSQYP: 3.03; for VAHVESEQEKSQCALEEYVRSQYP: 4.77.
Regarding VAHVESHQEKSQCALEEYVRSQYP, the protein stability index worked out at 3.71.
The same measure for VAHVESGQEKSQCALEEYVRSQYP: 3.55; for VAHVESFQEKSQCALEEYVRSQYP: 3.27; for VAHVESDQEKSQCALEEYVRSQYP: 4.29.
The same measure for VAHVESPQEKSQCALEEYVRSQYP: 4.43; for VAHVESLQSKSQCALEEYVRSQYP: 2.73; for VAHVESLQDKSQCALEEYVRSQYP: 3.59.
The same measure for VAHVESLQWKSQCALEEYVRSQYP: 2.27.
Regarding VAHVESLQYKSQCALEEYVRSQYP, the protein stability index is 2.77.
Take VAHVESLQVKSQCALEEYVRSQYP: the protein stability index was 2.72.
The result for VAHVESLQHKSQCALEEYVRSQYP reads 3.23; that for VAHVESLQKKSQCALEEYVRSQYP, 3.11.
The same measure for VAHVESLQEKSQCALEEYVMSQYP: 3.19; for VAHVESLQEKSQCALEEYVPSQYP: 4.16.
The same measure for VAHVESLQEKSQCALEEYVGSQYP: 4.17; for VAHVESLQEKSQCALEEYVYSQYP: 3.26.
VAHVESLQEKSQCALEEYVFSQYP: the protein stability index is 2.71.
The same measure for VAHVESLQEKSQCALEEYVSSQYP: 3.65.
The same measure for VAHVESLQEKSQCALEEYVQSQYP: 4.3; for VAHVESLQEKSQCALEEYVKSQYP: 4.18.
The same measure for VAHVESLQEKSQCALEEYVISQYP: 3.36; for VAHVESLQEKSQCALEEYVRKQYP: 3.15.
In the case of VAHVESLQEKSQCALEEYVRMQYP, the protein stability index came out at 3.33.
The same measure for VAHVESLQEKSQCALEEYVRRQYP: 3.13; for VAHVESLQEKSQCALEEYVRNQYP: 3.92; for VAHVESLQEKSQCALEEYVRAQYP: 3.25.
The same measure for VAHVESLQEKSQPALEEYVRSQYP: 3.92; for VAHVESLQEKSQYALEEYVRSQYP: 3.83.
The same measure for VAHVESLQEKSQVALEEYVRSQYP: 4.05.
On to VAHVESLQEKSQGALEEYVRSQYP, for which the protein stability index was 4.
The same measure for VAHVESLQEKSQWALEEYVRSQYP: 3.54; for VAHVESLQEKSQMALEEYVRSQYP: 3.98.
The same measure for VAHVESLQEKSQHALEEYVRSQYP: 4.4; for VAHVESLQEKSQCMLEEYVRSQYP: 3.81; for VAHVESLQEKSQCILEEYVRSQYP: 3.75.
The same measure for VAHVESLQEKSQCGLEEYVRSQYP: 3.6; for VAHVESLQEKSQCQLEEYVRSQYP: 3.57.
As to VAHVESLQEKSQCCLEEYVRSQYP, the protein stability index was determined as 3.41.
The result for VAHVESLQEKSQCNLEEYVRSQYP reads 4.22; that for VAHVESLQEKSQCWLEEYVRSQYP, 2.5; that for VAHVESLQEKSQCALEEYVRSQRP, 4.51.
The same measure for VAHVESLQEKSQCALEEYVRSQPP: 4.15; for VAHVESLQEKSQCALEEYVRSQFP: 3.43.
For VAHVESLQEKSQCALEEYVRSQHP, the protein stability index worked out at 3.88.
Consider VAHVESLQEKSQCALEEYVRSQGP, for which the protein stability index was 4.14.
The same measure for VAHVESLQEKSQCALEEYVRSQDP: 4.53.
The same measure for VAHVESLQEKSQCALEEYVRSQAP: 4.1; for VAHVESLQEKSQCALEEYVRSQTP: 4.01; for VAHVESLQEKSQCALEEYVRSQVP: 3.76.
The result for VAHVESLQEKSQCALEEYVRSQSP reads 4.36; that for VAHLESLQEKSQCALEEYVRSQYP, 3.08; that for VAHMESLQEKSQCALEEYVRSQYP, 3.24.
VAHIESLQEKSQCALEEYVRSQYP: the protein stability index came out at 3.45.
The result for VAHRESLQEKSQCALEEYVRSQYP reads 4.06; that for VAHDESLQEKSQCALEEYVRSQYP, 4.06.
The same measure for VAHQESLQEKSQCALEEYVRSQYP: 4.03; for VAHHESLQEKSQCALEEYVRSQYP: 4.06.
The result for VAHVESLQEKSQCALEEYGRSQYP reads 3.39; that for VAHVESLQEKSQCALEEYIRSQYP, 3.63; that for VAHVESLQEKSQCALEEYNRSQYP, 4.13.
For VAHVESLQEKSQCALEEYSRSQYP, the protein stability index amounted to 4.08.
Regarding VAHVESLQEKSQCALEEYDRSQYP, the protein stability index was 4.26.
The same measure for VAHVESLQEKSQCALEEYMRSQYP: 3.65.
On to VAHVESLQEKSQCALEEYRRSQYP, for which the protein stability index was determined as 3.85.
The same measure for VAHVESLQEKSQCALEEYKRSQYP: 4.04.
The same measure for VAHVESLQEKSQCALEEYLRSQYP: 3.17; for VAHVESLQEKSQCANEEYVRSQYP: 4.42.
The result for VAHVESLQEKSQCAKEEYVRSQYP reads 4.3; that for VAHVESLQEKSQCAVEEYVRSQYP, 4.51; that for VAHVESLQEKSQCAGEEYVRSQYP, 4.89.
Turning to VAHVESLQEKSQCAFEEYVRSQYP, the protein stability index is 3.48.
The result for VAHVESLQEKSQCAEEEYVRSQYP reads 5.03; that for VAHVESLQEKSQCALEEYVRSYYP, 3.34.
The same measure for VAHVESLQEKSQCALEEYVRSPYP: 3.3; for VAHVESLQEKSQCALEEYVRSMYP: 2.87; for VAHVESLQEKSQCALEEYVRSTYP: 3.27.
The same measure for VAHVESLQEKSQCALEEYVRSAYP: 3.63; for VAHVESLQEKSQCALEEYVRSIYP: 2.6.
For VAHVESLQEKAQCALEEYVRSQYP, the protein stability index was determined as 4.05.
The result for VAHVESLQEKNQCALEEYVRSQYP reads 3.88; that for VAHVESLQEKKQCALEEYVRSQYP, 3.41; that for VAHVESLQEKPQCALEEYVRSQYP, 4.04.
On to VAHVESLQEKCQCALEEYVRSQYP, for which the protein stability index was 3.37.

The values above are taken from the supplement of paper PMC10567573.
